Source: paper PMC8576529, “Handling Several Sugars at a Time: a Case Study of Xyloglucan Utilization by Ruminiclostridium cellulolyticum” (mBio, 2021)
Like-named read-outs stand apart in the source and are kept apart here. One block for each molecule: values may come before it.

How the values were obtained:
α-Xylosidase Xyl31A = molecular target: T1, α-Xylosidase Xyl31A (Ruminiclostridium cellulolyticum, UniProt B8I9A6); assay: isoprimeverose hydrolysis, HPAEC-PAD; assay type: biochemical; details: competitive; substrate isoprimeverose 0.5 to 8 mM, 50 mM phosphate pH 6.0, 37°C; read-out: Mean enzyme concn (mM) ± SD^a / α-Xylosidase (Xyl31A)
T1 construct: gene Ccel_1004; cytosolic enzyme, purified as formerly reported
T1 sequence (B8I9A6 entry or part of it): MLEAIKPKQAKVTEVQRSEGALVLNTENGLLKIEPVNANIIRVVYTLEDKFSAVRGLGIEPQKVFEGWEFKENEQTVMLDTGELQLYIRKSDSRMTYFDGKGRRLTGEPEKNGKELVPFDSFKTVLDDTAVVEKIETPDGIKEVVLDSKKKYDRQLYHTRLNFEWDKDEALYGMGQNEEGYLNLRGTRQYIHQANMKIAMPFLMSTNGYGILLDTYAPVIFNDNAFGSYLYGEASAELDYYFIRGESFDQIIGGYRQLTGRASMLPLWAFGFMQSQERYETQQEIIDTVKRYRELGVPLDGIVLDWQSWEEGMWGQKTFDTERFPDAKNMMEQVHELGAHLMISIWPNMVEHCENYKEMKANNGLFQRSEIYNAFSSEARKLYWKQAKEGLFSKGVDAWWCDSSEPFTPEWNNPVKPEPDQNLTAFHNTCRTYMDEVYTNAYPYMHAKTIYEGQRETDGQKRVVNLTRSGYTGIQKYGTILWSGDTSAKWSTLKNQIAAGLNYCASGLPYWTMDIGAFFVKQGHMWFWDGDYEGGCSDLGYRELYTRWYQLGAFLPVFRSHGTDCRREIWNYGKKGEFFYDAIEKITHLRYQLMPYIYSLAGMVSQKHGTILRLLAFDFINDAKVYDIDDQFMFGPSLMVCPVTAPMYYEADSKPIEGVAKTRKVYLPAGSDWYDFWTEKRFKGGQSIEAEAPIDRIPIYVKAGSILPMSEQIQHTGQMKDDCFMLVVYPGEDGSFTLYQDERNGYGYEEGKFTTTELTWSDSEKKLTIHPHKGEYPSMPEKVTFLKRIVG
From the text: isoprimeverose hydrolysis, HPAEC-PAD on α-Xylosidase Xyl31A

β-Glucosidase Glu3A = molecular target: T2, β-Glucosidase Glu3A; assay: pNPβGlu hydrolysis, A400; assay type: biochemical, Ruminiclostridium cellulolyticum; details: competitive; substrate p-nitrophenyl-β-D-glucoside, 50 mM phosphate pH 7.0, 37°C; read-out: Mean enzyme concn (mM) ± SD^a / β-Glucosidase (Glu3A)
T2 construct: cytosolic enzyme, purified as formerly reported
From the text: pNPβGlu hydrolysis, A400 on β-Glucosidase Glu3A

[1] = molecular target: T3, Cellobiose phosphorylase CbpA (Ruminiclostridium cellulolyticum, UniProt B8I421); assay: cellobiose phosphorolysis, HPAEC-PAD; assay type: biochemical; details: competitive; cellobiose 0.05 to 10 mM varied, 50 mM phosphate, pH 7.0, 37°C; read-out: Inhibitor
T3 construct: gene Ccel_2109; C-terminal 6xHis tag, produced in E. coli, purified to homogeneity
T3 sequence (B8I421 1-811): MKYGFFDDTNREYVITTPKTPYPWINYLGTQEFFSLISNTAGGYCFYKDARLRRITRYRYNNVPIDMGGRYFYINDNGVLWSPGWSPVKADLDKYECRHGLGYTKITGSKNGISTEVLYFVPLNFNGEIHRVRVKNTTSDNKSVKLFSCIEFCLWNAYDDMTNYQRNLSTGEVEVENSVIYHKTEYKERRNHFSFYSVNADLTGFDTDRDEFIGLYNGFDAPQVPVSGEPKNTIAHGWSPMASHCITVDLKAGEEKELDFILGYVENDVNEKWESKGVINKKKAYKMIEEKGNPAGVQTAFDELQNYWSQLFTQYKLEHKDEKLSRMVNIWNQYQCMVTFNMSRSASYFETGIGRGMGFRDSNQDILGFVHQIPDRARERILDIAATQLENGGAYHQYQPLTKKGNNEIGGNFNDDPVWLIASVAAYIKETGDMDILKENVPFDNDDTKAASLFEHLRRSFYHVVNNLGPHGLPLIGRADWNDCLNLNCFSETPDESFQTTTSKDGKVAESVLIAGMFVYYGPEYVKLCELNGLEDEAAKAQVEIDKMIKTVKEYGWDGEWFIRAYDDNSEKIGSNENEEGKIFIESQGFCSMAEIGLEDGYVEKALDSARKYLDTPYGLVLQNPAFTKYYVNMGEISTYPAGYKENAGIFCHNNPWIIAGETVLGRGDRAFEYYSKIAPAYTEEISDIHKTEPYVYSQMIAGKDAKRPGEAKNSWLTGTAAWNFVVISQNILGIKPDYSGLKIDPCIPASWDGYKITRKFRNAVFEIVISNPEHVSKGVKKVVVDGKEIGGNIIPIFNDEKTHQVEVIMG
From the text: cellobiose phosphorolysis, HPAEC-PAD on Cellobiose phosphorylase CbpA

β-Galactosidase Gal42A = molecular target: T4, β-Galactosidase Gal42A; assay: pNPβGal hydrolysis, A400; assay type: biochemical, Ruminiclostridium cellulolyticum; details: substrate p-nitrophenyl-β-D-galactoside, 50 mM phosphate pH 7.0, 37°C, read-out: Mean enzyme concn (mM) ± SD^a / β-Galactosidase Gal42A
T4 construct: cytosolic enzyme, purified as formerly reported
From the text: pNPβGal hydrolysis, A400 on β-Galactosidase Gal42A

Galactokinase = molecular target: T5, Galactokinase (Ruminiclostridium cellulolyticum, UniProt B8I0X2); assay: galactose phosphorylation, HPLC-RI; assay type: biochemical; details: 5 mM GTP, 25 mM MgCl2, 25 mM HEPES pH 7.0, 37°C; read-out: Substrate(s) (fixed cosubstrate concn)^a
T5 construct: gene galK; C-terminal 6xHis tag (pET28a-3238), E. coli BL21(DE3)
T5 sequence (B8I0X2 1-397): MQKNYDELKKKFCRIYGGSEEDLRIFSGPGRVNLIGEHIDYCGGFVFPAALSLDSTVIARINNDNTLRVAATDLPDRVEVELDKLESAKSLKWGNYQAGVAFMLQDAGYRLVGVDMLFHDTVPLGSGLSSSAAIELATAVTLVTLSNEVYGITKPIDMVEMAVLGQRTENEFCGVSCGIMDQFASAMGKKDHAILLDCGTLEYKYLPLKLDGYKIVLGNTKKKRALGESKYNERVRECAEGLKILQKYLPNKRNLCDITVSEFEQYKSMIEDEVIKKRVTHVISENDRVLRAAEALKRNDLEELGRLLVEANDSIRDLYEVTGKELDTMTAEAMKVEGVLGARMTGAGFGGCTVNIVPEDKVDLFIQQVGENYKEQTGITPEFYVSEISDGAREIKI
From the text: (§1) galactose phosphorylation, HPLC-RI on Galactokinase

isomerization, HPAEC-PAD = substrate: O=P(O)(O)O[C@H]1O[C@H](CO)[C@@H](O)[C@H](O)[C@H]1O; assay: isomerization, HPAEC-PAD; assay type: biochemical, Ruminiclostridium cellulolyticum; details: 25 mM HEPES pH 7.0, 37°C
From the text: isomerization, HPAEC-PAD on α-Phosphoglucomutase

[2] = substrate: Nc1nc2c(ncn2[C@@H]2O[C@H](COP(=O)(O)OP(=O)(O)OP(=O)(O)O)[C@@H](O)[C@H]2O)c(=O)[nH]1; assay: galactose phosphorylation, HPLC-RI; assay type: biochemical, Ruminiclostridium cellulolyticum; details: 100 mM galactose, 25 mM MgCl2, 25 mM HEPES pH 7.0, 37°C
From the text: as §1

[3] = substrate: Nc1ncnc2c1ncn2[C@@H]1O[C@H](COP(=O)(O)OP(=O)(O)OP(=O)(O)O)[C@@H](O)[C@H]1O; assay: galactose phosphorylation, HPLC-RI; assay type: biochemical, Ruminiclostridium cellulolyticum; details: 100 mM galactose, 25 mM MgCl2, 25 mM HEPES pH 7.0, 37°C
From the text: as §1

isomerization, HPLC-RI = substrate: O=C(CO)[C@@H](O)[C@H](O)CO; assay: isomerization, HPLC-RI; assay type: biochemical, Ruminiclostridium cellulolyticum; details: 10 mM MgCl2, 25 mM HEPES pH 7.0, 37°C
From the text: isomerization, HPLC-RI on Xylose isomerase

purified protein [4] = substrate: Nc1nc2c(ncn2[C@@H]2O[C@H](COP(=O)(O)OP(=O)(O)OP(=O)(O)O)[C@@H](O)[C@H]2O)c(=O)[nH]1; assay: purified protein; assay type: biochemical, Ruminiclostridium cellulolyticum; details: 5 mM glucose, 25 mM MgCl2, 25 mM HEPES pH 7.0, 37°C
From the text: (§2) glucose phosphorylation, HPLC-RI on Hexokinase

purified protein [5] = substrate: Nc1ncnc2c1ncn2[C@@H]1O[C@H](COP(=O)(O)OP(=O)(O)OP(=O)(O)O)[C@@H](O)[C@H]1O; assay: purified protein; assay type: biochemical, Ruminiclostridium cellulolyticum; details: 5 mM glucose, 25 mM MgCl2, 25 mM HEPES pH 7.0, 37°C, ATP tested only up to 20 mM (below Km)
From the text: as §2

Ki (α-Xylosidase Xyl31A): 1.83 ± 0.42 mM
Ki (β-Glucosidase Glu3A): 3.99 ± 0.33 mM
Ki [1]: 0.68 ± 0.04 mM
Molecule: OC[C@H]1OC(O)[C@H](O)[C@@H](O)[C@@H]1O (stereo partly shown) [Glucose]

Molecule: OC[C@H]1OC(O)[C@H](O)[C@@H](O)[C@H]1O (stereo partly shown) [Galactose]
Ki (β-Galactosidase Gal42A; competitive): 2.35 ± 0.05 mM
Km (Galactokinase): 15.5 ± 1.8 mM

Ki (β-Galactosidase Gal42A; noncompetitive): 19.3 ± 1.41 mM
Ki (β-Glucosidase Glu3A): 36.3 ± 5.57 mM
Molecule: OC[C@H]1O[C@@H](O[C@H]2[C@H](O)[C@@H](O)C(O)O[C@@H]2CO)[C@H](O)[C@@H](O)[C@@H]1O (stereo partly shown) [Cellobiose]

B1: α-Phosphoglucomutase (Ruminiclostridium cellulolyticum H10) (protein)
chain: MEYLSKLNFWLDNEYFDQDTKNELLSIKNNAKEVEDRFYKSLEFGTGGLRGIIGAGTNRINIYTVRVASQGLANYINQMGKQDKGIVIAYDPRFMSPEFSLEAAKVFCANGIKAYLFDELRPTPQLSFAVRYLKAAAGVVVTASHNPKQYNGYKVYGEDGGQLSIDGSNAVISEINKITDITKVNIISKEDAASKGLLQIIGSEIDDAYIEMLKKLRINKDAVSKVADTFKIVYTPLHGAGNKPVRRILAESGFKEVLVVKEQELPDSQFSTVKSPNPEERSAFELAIKLASDNNVDLIIGTDPDSDRVGVVVRKNDGEYAVLTGNQTGCLLLEYILTAMKEEGKLPANGFVVKTIVTTELARIIADFYNVELVEVLTGFKFIGEQIKLRDENGNQKYLFGFEESYGYLAGTDVRDKDAVVASMLVAEMAAYYKVKGISLYDALTNLYEKYGYFVEGISSFTLEGKDGVMKIKEALTTMRKTKYESFGGIKVKAIRDYQKSERHVIASGATEKITLPESDVLYFEMEDGSWFCVRPSGTEPKIKIYYGVSDRTLNLSQDKLEKFKAGVLDVIKPLL
notes: C-terminal 6xHis tag (pET28a-1417), E. coli BL21(DE3)
Km (isomerization, HPAEC-PAD): 0.155 ± 0.055 mM
kcat (isomerization, HPAEC-PAD): 1,768 ± 19 IU μmol^−1

B2: Galactokinase (Ruminiclostridium cellulolyticum H10) (protein)
chain: T5 sequence (B8I0X2 1-397)
notes: C-terminal 6xHis tag (pET28a-3238), E. coli BL21(DE3)
Km [2]: 0.99 ± 0.13 mM
kcat [2]: 1,704 ± 75 IU μmol^−1
Km [3]: 13.71 ± 2.42 mM
kcat [3]: 4,853 ± 419 IU μmol^−1

B3: Xylose isomerase (Ruminiclostridium cellulolyticum H10) (protein)
chain: MSEVFSGISNIKFEGSGSDNPLAFKYYDPKAVIGGKTMEEHLRFAVAYWHTFAAPGADMFGAGSYVRPWNTMSDPLEIAKYKVEANFEFIEKLGAPFFAFHDRDIAPEGDTLAETNKNLDTIVSVIKDRMKSSPVKLLWGTTNAFGNPRFMHGASTSPNADIFAYAAAQVKKAMEITKELGGENYVFWGGREGYETLLNTDMKLELDNLARFLKMAVDYAKEIGFDGQFLIEPKPKEPTKHQYDFDTATVIGFLKTYGLDPYFKMNIEANHATLAGHTFQHELAMCRINDMLGSIDANQGDVMLGWDTDQFPTNLYDATLAMVEVLKAGGLKKGGLNFDSKVRRGSFEPSDLFYGHIAGMDTFAKGLIIANKIVEDGKFDAFVADRYSSYTNGIGKDIVEGKVGFKELEQYALTAKIQNKSGRQEMLEALLNQYILETK
notes: C-terminal 6xHis tag (plasmid printed as pET28a-3439), E. coli BL21(DE3)
Km (isomerization, HPLC-RI): 2.0 ± 0.2 mM
kcat (isomerization, HPLC-RI): 63.5 ± 1.8 IU μmol^−1

B4: Hexokinase (Ruminiclostridium cellulolyticum H10) (protein)
chain: MGSKLEIVQDVINAFEVNKESMLRTAMLFKETMEKSLNGEKTCLKMLPSYIGKPTGKEQGTFMTIDMGGTNFRCTKYKINNGNFEKVGEIKQKLINKEKNYDLTKSDSDEKQLFGFMAECIGELLEPEESLYLGNTFSFPCRQEGINDAYLIQWTKEITTSGVVGQNINKLLEQSLKEKNINVKPVAILNDTVGTLLVAMYSYQTADIGSIMGTGHNTCYLENNHPLNGQKMIVNIESGNYNVGLPVTKYDEIIDKNSQIPGAQLLEKMVSGYYMGSLLKEVCKDLYKNNALFTNEDVDIDAFFNQNFNALMVENFILYPSNTKEQYKCSIEDAEIVKRVSEAILKRTVRLVAVSHMGILFHQENSGTSVNNEHVIAIDGTIYEKMPNAPQLMKEAFREALGDDASNIEIRLVKDGSGLGAAIAAAFAVTQ
notes: C-terminal 6xHis tag (pET28a-3221), E. coli BL21(DE3)
Km (purified protein [4]): 0.40 ± 0.07 mM
kcat (purified protein [4]): 11,160 ± 543 IU μmol^−1
Km (purified protein [5]): 32.2 ± 7.4 mM
kcat (purified protein [5]): 8,781 ± 1,418 IU μmol^−1
